Here are results for 38 sequences from the supplement of paper PMC7877785.

A short description of this data set: self-splicing fitness, log relative to wild type (ln ratio); higher = more splicing; Tetrahymena group I intron in knt gene, E. coli kanamycin selection, DiMSum; sequences stand for … in CUCUCU…GGAGGGAAAAGUUAUCAGGCAUGCACCUGGUAGCUAGUCUUUAAACCAAUAGAUUGCAUCGGUUUAAAAGGCAAGACCGUCAAAUUGCGGGAAAGGGGUCAACAGCCGUUCAGUACCAAGUCUCAGGGGAAACUUUGAGAUGGCCUUGCAAAGGGUAUGGUAAUAAGCUGACGGACAUGGUCCUAACCACGCAGCCAAGUCCUAAGUCAACAGAUCUUCUGUUGAUAUGGAUGCAGUUCACAGACUAAAUGUCGGUCGGGGAAGAUGUAUUCUUCUCAUAAGAUAUAGUCGGACCUCUCCUUAAUGGGAGCUAGCGGAUGAAGUGAUGCAACACUGGAGCCGCUGGGAACUAAUUUGUAUGCGAAAGUAUAUUGAUUAGUUUUGGAGUACUCGUGGUCG
The essentials: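 Colonies from six replicate transformations of E. coli BL21(DE3) were pooled and amplicon-sequenced on an Illumina HiSeq 2500. The library placed an intron with all eight P1ex-region nucleotides randomised inside the knt kanamycin-resistance gene on pET-22b(+), and cells grew overnight at 37°C or 30°C on LB agar with or without 25 μg/mL kanamycin (plus 100 μg/mL carbenicillin, 50 μM IPTG, 0.2% rhamnose). Fitness is the DiMSum error-weighted combination of wild-type-normalised replicate fold changes, kanamycin versus none.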

± gives the uncertainty stated by the source.

Regarding ACCUAGCAAUAUUACGUCAU, the “self-splicing fitness (ln)” value is -2.11 ± 0.12 (30 °C) and -1.63 ± 0.12 (37 °C).
On the same counts, the results for ACCUAGCAAUAUUACGUCUU are -0.806 ± 0.064 and -0.667 ± 0.075.
For the sequence ACCUAGCAAUAUUACGUGUA, the “self-splicing fitness (ln)” value reads like this: (30 °C) -2.84 ± 0.099; (37 °C) -1.45 ± 0.075.
As for ACCUAGCAAUAUUACGUUCU, the “self-splicing fitness (ln)” value (30 °C) is -1.08 ± 0.1 and the “self-splicing fitness (ln)” value (37 °C) was -0.757 ± 0.1.
Regarding ACGAAGCAAUAUUACGACCU, the “self-splicing fitness (ln)” value reads like this: (30 °C) 0.0549 ± 0.12; (37 °C) 0.126 ± 0.13.
Regarding ACGAAGCAAUAUUACGACUU, the “self-splicing fitness (ln)” value is -0.832 ± 0.058 (30 °C) and 0.00574 ± 0.081 (37 °C).
In the case of ACGAAGCAAUAUUACGAGAC, the “self-splicing fitness (ln)” value (30 °C) is -2.39 ± 0.38.
As for ACGAAGCAAUAUUACGAUAU, the “self-splicing fitness (ln)” value by setting is: (30 °C) -3.39 ± 0.14; (37 °C) -2.03 ± 0.14.
Take ACGAAGCAAUAUUACGAUUU: the “self-splicing fitness (ln)” value was -1.28 ± 0.094 (30 °C) and -0.317 ± 0.1 (37 °C).
With ACGAAGCAAUAUUACGCCAG, the “self-splicing fitness (ln)” value reads like this: (30 °C) -2.08 ± 0.19; (37 °C) -1.72 ± 0.3.
ACGAAGCAAUAUUACGCCGU: the “self-splicing fitness (ln)” value was -3.86 ± 0.37 (30 °C) and -1.57 ± 0.23 (37 °C).
Take ACGAAGCAAUAUUACGCCUU: the “self-splicing fitness (ln)” value (30 °C) is -2.57 ± 0.14 and the “self-splicing fitness (ln)” value (37 °C) was -0.89 ± 0.13.
On the same counts, the results for ACGAAGCAAUAUUACGCGGA are -1.96 ± 0.17 and -1.33 ± 0.13.
In the case of ACGAAGCAAUAUUACGCGUG, the “self-splicing fitness (ln)” value is -1.13 ± 0.051 (30 °C) and -0.442 ± 0.074 (37 °C).
ACGAAGCAAUAUUACGCUCA: the “self-splicing fitness (ln)” value is, setting by setting: (30 °C) -0.808 ± 0.11; (37 °C) 0.223 ± 0.17.
As for ACGAAGCAAUAUUACGCUCG, the “self-splicing fitness (ln)” value (30 °C) is -1.53 ± 0.14 and the “self-splicing fitness (ln)” value (37 °C) was -1.17 ± 0.17.
For the sequence ACGAAGCAAUAUUACGCUGU, the “self-splicing fitness (ln)” value is -2.16 ± 0.13 (30 °C) and -0.576 ± 0.11 (37 °C).
On the same counts, the results for ACGAAGCAAUAUUACGGCAG are -2.17 ± 0.13 and -1.58 ± 0.14.
The like results for ACGAAGCAAUAUUACGGCGA were, in that order, -0.157 ± 0.087 and 0.0766 ± 0.12.
The like results for ACGAAGCAAUAUUACGGCGU were, in that order, -2.47 ± 0.09 and -1.74 ± 0.11.
With ACGAAGCAAUAUUACGGGAA, the “self-splicing fitness (ln)” value by setting is: (30 °C) -3.09 ± 0.19; (37 °C) -1.31 ± 0.13.
With ACGAAGCAAUAUUACGUACU, the “self-splicing fitness (ln)” value was -0.484 ± 0.064 (30 °C) and -0.0153 ± 0.089 (37 °C).
On the same counts, the results for ACGAAGCAAUAUUACGUCCA are -0.408 ± 0.12 and -0.457 ± 0.13.
Regarding ACGAAGCAAUAUUACGUUGC, the “self-splicing fitness (ln)” value (30 °C) is -3.45 ± 0.17 and the “self-splicing fitness (ln)” value (37 °C) was -1.8 ± 0.16.
ACGCAGCAAUAUUACGAACC: the “self-splicing fitness (ln)” value is -1.99 ± 0.16 (30 °C) and -0.986 ± 0.26 (37 °C).
Turning to ACGCAGCAAUAUUACGAAGC, the “self-splicing fitness (ln)” value is, setting by setting: (30 °C) -3.38 ± 0.24; (37 °C) -1.6 ± 0.28.
On the same counts, the results for ACGCAGCAAUAUUACGAAGG are -2.61 ± 0.13 and -1.3 ± 0.14.
In the case of ACGCAGCAAUAUUACGAGAU, the “self-splicing fitness (ln)” value is, setting by setting: (30 °C) -3.32 ± 0.14; (37 °C) -2.68 ± 0.18.
Take ACGCAGCAAUAUUACGAGUA: the “self-splicing fitness (ln)” value (30 °C) is -3.72 ± 0.33 and the “self-splicing fitness (ln)” value (37 °C) is -3.07 ± 0.27.
As to ACGCAGCAAUAUUACGAUGU, the “self-splicing fitness (ln)” value reads like this: (30 °C) -2.13 ± 0.057; (37 °C) -1.16 ± 0.078.
With ACGCAGCAAUAUUACGCAUU, the “self-splicing fitness (ln)” value (30 °C) was -3.81 ± 0.19 and the “self-splicing fitness (ln)” value (37 °C) is -1.89 ± 0.12.
For the sequence ACGCAGCAAUAUUACGCCGC, the “self-splicing fitness (ln)” value is -3.68 ± 0.29 (30 °C) and -2.42 ± 0.25 (37 °C).
As to ACGCAGCAAUAUUACGCCUU, the “self-splicing fitness (ln)” value reads like this: (30 °C) -0.484 ± 0.082; (37 °C) 0.1 ± 0.095.
ACGCAGCAAUAUUACGCGAC: the “self-splicing fitness (ln)” value (30 °C) was -2.01 ± 0.15 and the “self-splicing fitness (ln)” value (37 °C) was -2.24 ± 0.21.
On the same counts, the results for ACGCAGCAAUAUUACGCGUC are -4.42 ± 0.17 and -2.18 ± 0.14.
Consider ACGCAGCAAUAUUACGCGUU, for which the “self-splicing fitness (ln)” value was -3.56 ± 0.14 (30 °C) and -2.42 ± 0.18 (37 °C).
On to ACGCAGCAAUAUUACGCUUU, for which the “self-splicing fitness (ln)” value is -1.69 ± 0.079 (30 °C) and -1.15 ± 0.11 (37 °C).
As for ACGCAGCAAUAUUACGGCGA, the “self-splicing fitness (ln)” value was -0.895 ± 0.1 (30 °C) and -0.0901 ± 0.14 (37 °C).
